Literature values in article PMC7340539.

Target: CD47 (Homo sapiens) (UniProt Q08722)
Chain of UniProt Q08722 (Q08722 19-323): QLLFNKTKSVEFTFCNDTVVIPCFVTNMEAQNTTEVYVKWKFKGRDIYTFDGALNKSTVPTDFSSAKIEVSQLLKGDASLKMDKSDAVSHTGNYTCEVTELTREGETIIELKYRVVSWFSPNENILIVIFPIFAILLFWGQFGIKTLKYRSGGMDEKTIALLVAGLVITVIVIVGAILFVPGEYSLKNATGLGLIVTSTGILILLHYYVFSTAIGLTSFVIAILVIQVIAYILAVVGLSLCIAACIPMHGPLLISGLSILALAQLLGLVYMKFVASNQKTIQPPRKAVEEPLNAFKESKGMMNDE

Substance: SIRPα ECD (from UniProt P78324)
- Kd: 2000 nM
